B1: 238D2 nanobody (bacterially produced, c-myc- and His-tagged) (VHH)
VHH: EVQLVESGGGLVQTGGSLRLSCAASGFTFSSYAMSWVRQAPGKGLEWVSGIKSSGDSTRYAGSVKGRFTISRDNAKNMLYLQMYSLKPEDTAVYYCAKSRVSRTGLYTYDNRGQGTQVTVSS
notes: also called anti-CXCR4 Nb
B2: 4N1H VHH (bacterially produced, c-myc- and His-tagged) (VHH)
VHH: EVQLQESGGGLVQAGASLKLSCAASGRTFSSYAMGWFRQAPGKEREFVAAISRSGGDTKYADSVKGRFAISRDNDKNTVWLRMNSLKPEDTAVYYCAATTYASLSDTYIGEHIYDDWGQGTQVTVSS
notes: also called cAB-F11N
B3: 3SM5 VH domain (bacterially produced, c-myc- and His-tagged) (domain or fragment)
VH: MEVQLVQSGAEVKKPGASVKVSCKASGYTFTDYHINWVRQAPGQGLEWMGWIHPNSGDTNYAQKFQGWVTMTRDTAISTAYMEVNGLKSDDTAVYYCARGGLEPRSVDYYYYGMDVWGQGTTVTVSS
notes: also called VH of CH65

Columns and labels:
[1] = biological target: AviTag-238D2 (biotinylated, c-myc-tagged 238D2); experiment: BLI
[2] = biological target: AviTag-3SM5 (biotinylated, c-myc-tagged 3SM5 VH); experiment: BLI
[3] = biological target: T1, SNAP-tagged hCXCR4 labelled with Lumi4-Terbium (human, UniProt P61073 1-352, Lumi4-Terbium on the SNAP tag); experiment: AlphaScreen or HTRF; conditions: one partner purified
T1 construct: also called SNAP-CXCR4; Terbium-linked SNAP-tagged CXCR4
T1 sequence (P61073 whole entry): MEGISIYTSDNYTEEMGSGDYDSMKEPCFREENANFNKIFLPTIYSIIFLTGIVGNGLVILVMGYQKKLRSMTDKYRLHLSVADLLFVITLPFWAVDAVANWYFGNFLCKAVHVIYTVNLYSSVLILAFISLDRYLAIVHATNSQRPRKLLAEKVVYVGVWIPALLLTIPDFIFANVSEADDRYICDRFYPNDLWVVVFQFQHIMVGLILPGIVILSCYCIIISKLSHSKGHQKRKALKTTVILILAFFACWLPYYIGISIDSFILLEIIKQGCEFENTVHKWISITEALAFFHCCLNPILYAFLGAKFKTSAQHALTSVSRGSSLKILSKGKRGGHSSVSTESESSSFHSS

Molecule	Kd [1] [nM]	Kd [2] [nM]	IC50 [3] [nM]
Influenza A H1N1 (A/SOLOMON ISLANDS/3/2006): hemagglutinin H1 as a fusion protein with the neuraminidase N1	119	236	
B1			58.4
B2			39.8
B3			69.1
